Test results from patent US20250084155A1 (University of Texas, published 2025).
Residue numbers refer to the chain shown, from its start. Names and notes keep the numbering of the source.

What was measured:
[1] = biological target: T1, HSP70 (human HSP70; the antigen of the binning, humanization and variant binding assays) (human, UniProt P0DMV8 1-641, limits assumed); experiment: BLI, anti-human Fc capture, antigen 100 nM
T1 construct: also called hu HSP70
Summary of the method: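 Antibody variants captured on anti-human Fc biosensors at […]; antigen at 100 nM flowed over, 25° C. Captured antigen recorded at 610 s (start of dissociation) and 1495 s (end of dissociation), giving % dissociation.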

[2] = biological target: T1, HSP70 (human HSP70; the antigen of the …); experiment: BLI, antibody on sensor
Experimental: Humanized variants were characterized for binding using biolayer interferometry (BLI). Chimeric antibodies including the murine 77A antigen binding region and human Fe regions were also tested. Antibodies and reagents were diluted out onto microwell plates and loaded into the instrument. Diluted antibodies were first immobilized onto dip-and-read sensors, and then measurements for baselines were acquired. Subsequently, the sensors were dipped into wells containing the antigen in solution, or buffer alone. The change in number of molecules bound to the sensor was quantified by measurement of the shift in the interference pattern of light during each step of the protocol. Mathematical modeling was performed based on those values and the concentrations of reagents used in the assay and used to calculate kinetics values.

[3] = biological target: T1, HSP70 (human HSP70; the antigen of the …); experiment: BLI, anti-human Fc capture, steady state
Experimental: (§1) Further kinetics assays were conducted for select antibody variants. Assays were performed as follows. Antibody variants were immobilized using anti-human Fc onto the surface of a series of biosensors. Antigen was passed over the surface to generate a binding response. Binding data for the antibody: antigen interactions were collected at 25° C. on the biosensors. A dilution series of the antigen was used in the association step, in order to fit results globally and get the best values for ka, kd, and KD. The response data for the binding of antigen to the surface immobilized antibody were fitted to a 1:1 binding model.

[4] = biological target: T1, HSP70 (human HSP70; the antigen of the …); experiment: BLI, anti-human Fc capture, antigen dilution series, 1:1 fit
Experimental: as §1

[5] = biological target: T2, recombinant human FcγR2A (human, UniProt P12318 36-218); experiment: ELISA on coated recombinant human FcγR2A; monomeric antibody; OD 450 nm
T2 sequence (looked up): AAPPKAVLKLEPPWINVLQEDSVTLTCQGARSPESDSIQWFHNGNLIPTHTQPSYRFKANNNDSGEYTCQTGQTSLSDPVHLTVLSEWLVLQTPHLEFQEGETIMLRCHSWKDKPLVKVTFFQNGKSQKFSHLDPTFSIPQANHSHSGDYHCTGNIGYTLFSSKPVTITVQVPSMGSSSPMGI
Experimental: ELISA assays were performed to assess binding to coated FcγR2A by either the monomeric antibody or the antibody in complex with HSP70. Briefly, the assay was performed by coating plates with recombinant human FcγR2A overnight at 0.3 μg/mL. Plates were then washed three times with 300 μL of 1×PBST, and then blocked using 150 µL of SuperBlock per well for 1 hr. Washing was repeated as before, then the dilution series of any of the antibody variants (referred to as “monomeric antibody”) or any of the or antibody immuno-complexes (hereafter referred to as “77A ICX”) were added. To make each dilution series, the following was performed: HSP70 was held constant, and first prepared at a 2× concentration of 200 nM. Antibody was first prepared at 600 nM (2× starting concentration) for the first well, and then serially diluted in three-fold increments using 1× PBST. For use in the assay as monomeric antibody, 80 μL of each 2× antibody dilution was added to 80 μL of 1×PBST and mixed well by pipette to make a 1× dilution series, with the highest concentration being 300 nM. To form the 77A ICX, 80 μL of each 2× antibody dilution was added to 80 μL of 2× HSP70 and mixed well by pipette. […] Plates were then read on a plate reader at 450 and 540 nm wavelengths.

T1 sequence (P0DMV8 whole entry, change not shown): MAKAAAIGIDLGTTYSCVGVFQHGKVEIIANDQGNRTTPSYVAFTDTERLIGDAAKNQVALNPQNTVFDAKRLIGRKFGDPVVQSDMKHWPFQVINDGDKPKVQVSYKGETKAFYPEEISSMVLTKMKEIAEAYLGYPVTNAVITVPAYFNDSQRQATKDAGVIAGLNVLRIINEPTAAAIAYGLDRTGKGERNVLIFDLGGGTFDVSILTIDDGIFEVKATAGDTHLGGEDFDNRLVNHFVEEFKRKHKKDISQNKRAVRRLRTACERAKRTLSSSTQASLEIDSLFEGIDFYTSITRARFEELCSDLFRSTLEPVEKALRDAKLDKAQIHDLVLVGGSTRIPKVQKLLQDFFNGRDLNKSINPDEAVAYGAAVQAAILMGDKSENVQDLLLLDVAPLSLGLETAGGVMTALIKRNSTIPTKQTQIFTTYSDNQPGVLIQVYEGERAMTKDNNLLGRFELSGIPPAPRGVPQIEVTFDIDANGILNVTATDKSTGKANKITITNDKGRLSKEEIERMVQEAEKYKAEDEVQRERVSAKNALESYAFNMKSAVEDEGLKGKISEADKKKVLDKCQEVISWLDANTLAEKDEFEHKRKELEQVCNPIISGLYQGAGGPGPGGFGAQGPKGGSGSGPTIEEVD

B1: h77A-1 (antibody, V domains shown)
VH: QIQLVQSGAEVKKPGASVKVSCKASGYTFTNYGMNWVRQAPGQGLEWMGWINTYTGEPTYADDFKGRFTFTTDTSTSTAYMELRSLRSDDTAVYFCARYDHAMDYWGQGTLVTVSS
VL: EIVLTQSPDSLAVSLGERATINCKSSQSLLNSGTRKNYLAWYQQKAGQSPKLLIYWTSTRESGVPDRFSGSGSGTDFTLTIDSLQAEDVAVYYCKQSYTLYTFGGGTKVEIK
notes: also called hVH-1 + hVL-1
Q: B1 was tested. Which “% Diss” value [1] did it give?
A: 7.63%

Q: What about the Kd [2] of the same binder?
A: 2.61 nM

Q: What about the koff [2] of the same binder?
A: 0.000173 s⁻¹

Q: And the kon [2]?
A: 66200 M⁻¹ s⁻¹

Q: And the “KD Steady State” value [3]?
A: 1.2 nM

Q: What about the Kd [4] of the same binder?
A: 2.39 nM

Q: What about the koff [4] of the same binder?
A: 0.000131 s⁻¹

Q: What about the kon [4] of the same binder?
A: 54700 M⁻¹ s⁻¹

B2: h77A-1.19 (antibody, V domains shown)
VH: B1 VH with A61V, E82D
VL: B1 VL
notes: captured by anti-human Fc
Q: What does the source list for B2?
A: % Diss [1]: 8.73%; KD Steady State [3]: 1.2 nM; Kd [4]: 1.26 nM; koff [4]: 0.000111 s⁻¹; kon [4]: 88500 M⁻¹ s⁻¹

B3: h77A-1.14 (antibody, V domains shown)
VH: B1 VH with A61T
VL: B1 VL
notes: captured by anti-human Fc
Q: Which “% Diss” value [1] does the source give for B3 here?
A: 7.88%

Q: And the “KD Steady State” value [3]?
A: 0.77 nM

Q: What about the Kd [4] of the same binder?
A: 1.97 nM

Q: What about the koff [4] of the same binder?
A: 0.000124 s⁻¹

Q: And the kon [4]?
A: 63100 M⁻¹ s⁻¹

B4: h77A-1.22 (antibody, V domains shown)
VH: B1 VH with A61S
VL: B1 VL with L30F
notes: captured by anti-human Fc
Q: Which results are given for B4?
A: % Diss [1]: 6.5%; KD Steady State [3]: 0.81 nM; Kd [4]: 1.14 nM; koff [4]: 7.64e-05 s⁻¹; kon [4]: 66900 M⁻¹ s⁻¹

B5: h77A-1.46 (antibody, V domains shown)
VH: B1 VH with A9V
VL: B1 VL with N22K, Q44K
notes: captured by anti-human Fc
Q: Which results are given for B5?
A: % Diss [1]: 6.22%; KD Steady State [3]: 1.2 nM; Kd [4]: 2.24 nM; koff [4]: 0.000123 s⁻¹; kon [4]: 54800 M⁻¹ s⁻¹

B6: h77A-1.17 (antibody, V domains shown)
VH: B1 VH with N31K, A102S
VL: B1 VL
notes: captured by anti-human Fc
Q: What does the source list for B6?
A: % Diss [1]: 7.04%; KD Steady State [3]: 1.3 nM; Kd [4]: 1.51 nM; koff [4]: 9.24e-05 s⁻¹; kon [4]: 61400 M⁻¹ s⁻¹

B7: h77A-1.18 (antibody, V domains shown)
VH: B1 VH with S77R
VL: B1 VL with L53V
notes: captured by anti-human Fc
Q: For B7, which “% Diss” value [1] is on record?
A: 7.15%

Q: What about the “KD Steady State” value [3] of the same binder?
A: 0.81 nM

Q: What about the Kd [4] of the same binder?
A: 1.44 nM

Q: What about the koff [4] of the same binder?
A: 9.1e-05 s⁻¹

Q: What about the kon [4] of the same binder?
A: 63200 M⁻¹ s⁻¹

B8: h77A-1.30 (antibody, V domains shown)
VH: B1 VH with L83V
VL: B1 VL with L53I
notes: captured by anti-human Fc
Q: How did the “% Diss” value [1] turn out when B8 was run?
A: 5.1%

Q: And the “KD Steady State” value [3]?
A: 0.86 nM

Q: What about the Kd [4] of the same binder?
A: 1.93 nM

Q: What about the koff [4] of the same binder?
A: 0.000109 s⁻¹

Q: And the kon [4]?
A: 56700 M⁻¹ s⁻¹

B9: h77A-1.59 (antibody, V domains shown)
VH: B1 VH with A9P, A61G, A97G
VL: B1 VL with S83R
notes: captured by anti-human Fc
Q: Which results are given for B9?
A: % Diss [1]: 9.8%; KD Steady State [3]: 0.74 nM; Kd [4]: 2.93 nM; koff [4]: 0.00012 s⁻¹; kon [4]: 40800 M⁻¹ s⁻¹

B10: h77A-1.12 (antibody, V domains shown)
VH: B1 VH
VL: B1 VL with L30F
notes: captured by anti-human Fc
Q: What does the source list for B10?
A: % Diss [1]: 4.74%; KD Steady State [3]: 1.1 nM; Kd [4]: 1.43 nM; koff [4]: 7.37e-05 s⁻¹; kon [4]: 51700 M⁻¹ s⁻¹

B11: h77A-1.16 (antibody, V domains shown)
VH: B1 VH with N31K
VL: B1 VL with N22K
notes: captured by anti-human Fc
Q: With B11 as the binder, how does the “% Diss” value [1] read?
A: 3.25%

Q: What about the “KD Steady State” value [3] of the same binder?
A: 1.3 nM

Q: What about the Kd [4] of the same binder?
A: 1.27 nM

Q: What about the koff [4] of the same binder?
A: 6.84e-05 s⁻¹

Q: What about the kon [4] of the same binder?
A: 54000 M⁻¹ s⁻¹

B12: h77A-1.71 (antibody, V domains shown)
VH: B1 VH with A9S, E82D
VL: B1 VL with A12S, N22K, A86T
notes: captured by anti-human Fc
Q: Which results are given for B12?
A: % Diss [1]: 7.93%; KD Steady State [3]: 1.3 nM; Kd [4]: 2.51 nM; koff [4]: 0.000123 s⁻¹; kon [4]: 49000 M⁻¹ s⁻¹

B13: h77A-1.10 (antibody, V domains shown)
VH: B1 VH with A9D
VL: B1 VL
notes: captured by anti-human Fc
Q: How did the “% Diss” value [1] turn out when B13 was run?
A: 8.76%

Q: What about the “KD Steady State” value [3] of the same binder?
A: 2.6 nM

Q: What about the Kd [4] of the same binder?
A: 2.48 nM

Q: What about the koff [4] of the same binder?
A: 0.000145 s⁻¹

Q: And the kon [4]?
A: 58400 M⁻¹ s⁻¹

B14: h77A-1.61 (antibody, V domains shown)
VH: B1 VH with T110S
VL: B1 VL with Q44K, A46S, T80S
notes: captured by anti-human Fc
Q: How did the “% Diss” value [1] turn out when B14 was run?
A: 6.66%

Q: What about the “KD Steady State” value [3] of the same binder?
A: 2.1 nM

Q: What about the Kd [4] of the same binder?
A: 2.91 nM

Q: And the koff [4]?
A: 0.000123 s⁻¹

Q: What about the kon [4] of the same binder?
A: 42100 M⁻¹ s⁻¹

B15: h77A-1.94 (antibody, V domains shown)
VH: B1 VH with A61T
VL: B1 VL with L30F, L53I, G70A, T80S, S83R
notes: captured by anti-human Fc
Q: How did the “% Diss” value [1] turn out when B15 was run?
A: 5.24%

Q: And the “KD Steady State” value [3]?
A: 1.3 nM

Q: What about the Kd [4] of the same binder?
A: 1.85 nM

Q: And the koff [4]?
A: 0.000111 s⁻¹

Q: What about the kon [4] of the same binder?
A: 59900 M⁻¹ s⁻¹

B16: h77A-1.27 (antibody, V domains shown)
VH: B1 VH with A61T
VL: B1 VL with A12T
notes: captured by anti-human Fc
Q: How did the “% Diss” value [1] turn out when B16 was run?
A: 6.74%

Q: What about the “KD Steady State” value [3] of the same binder?
A: 0.89 nM

Q: And the Kd [4]?
A: 1.41 nM

Q: What about the koff [4] of the same binder?
A: 0.000108 s⁻¹

Q: What about the kon [4] of the same binder?
A: 76400 M⁻¹ s⁻¹

B17: h77A-1.75 (antibody, V domains shown)
VH: B1 VH with A9V, A61S, L83V
VL: B1 VL with L30F, T80S
notes: captured by anti-human Fc
Q: B17 was tested. Which “% Diss” value [1] did it give?
A: 5.34%

Q: What about the “KD Steady State” value [3] of the same binder?
A: 0.023 nM

Q: What about the Kd [4] of the same binder?
A: 0.28 nM

Q: And the koff [4]?
A: 2.43e-05 s⁻¹

Q: What about the kon [4] of the same binder?
A: 88100 M⁻¹ s⁻¹

B18: h77A-1.74 (antibody, V domains shown)
VH: B1 VH with A9P, S77T, A79G
VL: B1 VL with N22K, V91I
notes: captured by anti-human Fc
Q: Which “% Diss” value [1] does the source give for B18 here?
A: 9.07%

Q: And the “KD Steady State” value [3]?
A: 1.7 nM

Q: What about the Kd [4] of the same binder?
A: 1.61 nM

Q: And the koff [4]?
A: 0.000125 s⁻¹

Q: What about the kon [4] of the same binder?
A: 77800 M⁻¹ s⁻¹

B19: h77A-1-G1m3-GAALIE (antibody, human IgG1, kappa)
heavy: QIQLVQSGAEVKKPGASVKVSCKASGYTFTNYGMNWVRQAPGQGLEWMGWINTYTGEPTYADDFKGRFTFTTDTSTSTAYMELRSLRSDDTAVYFCARYDHAMDYWGQGTLVTVSSASTKGPSVFPLAPSSKSTSGGTAALGCLVKDYFPEPVTVSWNSGALTSGVHTFPAVLQSSGLYSLSSVVTVPSSSLGTQTYICNVNHKPSNTKVDKRVEPKSCDKTHTCPPCPAPELLAGPSVFLFPPKPKDTLMISRTPEVTCVVVDVSHEDPEVKFNWYVDGVEVHNAKTKPREEQYNSTYRVVSVLTVLHQDWLNGKEYKCKVSNKALPLPEEKTISKAKGQPREPQVYTLPPSREEMTKNQVSLTCLVKGFYPSDIAVEWESNGQPENNYKTTPPVLDSDGSFFLYSKLTVDKSRWQQGNVFSCSVMHEALHNHYTQKSLSLSPGK
light: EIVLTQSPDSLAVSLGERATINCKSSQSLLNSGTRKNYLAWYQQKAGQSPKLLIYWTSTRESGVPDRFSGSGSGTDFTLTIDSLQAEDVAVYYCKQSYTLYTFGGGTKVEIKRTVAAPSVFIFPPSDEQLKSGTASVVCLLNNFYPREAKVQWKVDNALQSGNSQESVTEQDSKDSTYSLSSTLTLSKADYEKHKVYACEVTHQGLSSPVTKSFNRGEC
notes: IgG1 G236A/A330L/I332E (EU) Fc variant; also called 77A^GAALIE; copies: 2 + 2
Q: Does B19 bind [5]?
A: binds
